No end group written: not given here.
Biological target: T1, Fas receptor on 661W photoreceptor cells (UniProt P25446 22-327, limits assumed)
T1 sequence (looked up): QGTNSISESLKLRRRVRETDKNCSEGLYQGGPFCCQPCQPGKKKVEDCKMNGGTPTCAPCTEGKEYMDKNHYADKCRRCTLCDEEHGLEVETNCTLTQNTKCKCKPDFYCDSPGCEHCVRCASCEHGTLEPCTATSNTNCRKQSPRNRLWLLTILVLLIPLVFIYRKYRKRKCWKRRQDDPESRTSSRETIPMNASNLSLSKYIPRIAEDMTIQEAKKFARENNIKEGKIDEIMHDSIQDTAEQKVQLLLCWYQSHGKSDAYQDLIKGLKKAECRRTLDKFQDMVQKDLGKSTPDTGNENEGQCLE
Test: cell-based or functional assay

Molecule	caspase 8 activity in 661W cell lysates (dose of peak activity)	increase of caspase 8 activity in 661W cells	EC50, inhibition of FasL-induced caspase 8 activation in 661W cells	fold potency against Met-12 by IC50 determination	fold potency against Met-12 by the concentration of maximal inhibition
human recombinant FasL (from UniProt P48023 134-281) (ligand)	500 ng/mL	20 to 30%	–	–	–
HHIYLGAVNYIY (also: trihydrochloride salt) [Met-12 (HHIYLGAVNYIY)]	–	–	4000 nM	–	–
HHIYLGAVNYIY-NH2 (also: trihydrochloride salt) [Compound 1 (His-His-Ile-Tyr-Leu-Gly-Ala-Val-Asn-Tyr-Ile-Tyr-NH2), C-terminal amide of Met-12]	–	–	400 nM	10 fold	~3 fold

Reference: patent publication US20190201500A1 (ONL THERAPEUTICS, published 2019)
